Each block holds one binder with its values, some of them ahead of it.
What was measured:
4H1878-AA = target: T1, 4H1878-AA; assay: two-hybrid library CCmax;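 note: natural log of median RNA to DNA barcode read ratio; higher means stronger binding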
T1 chain: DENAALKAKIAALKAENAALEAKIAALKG

4H235-AA = target: T2, 4H235-AA; assay: two-hybrid library CCmax; details: mean of both orientations;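 note: natural log of median RNA to DNA barcode read ratio; higher means stronger binding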
T2 chain: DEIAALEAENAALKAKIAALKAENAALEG

4H249-AA = target: T3, 4H249-AA; assay: two-hybrid library CCmax; details: mean of both orientations;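 note: natural log of median RNA to DNA barcode read ratio; higher means stronger binding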
T3 chain: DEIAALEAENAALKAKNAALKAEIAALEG

4H2580-AA = target: T4, 4H2580-AA; assay: two-hybrid library CCmax; details: mean of both orientations;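 note: natural log of median RNA to DNA barcode read ratio; higher means stronger binding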
T4 chain: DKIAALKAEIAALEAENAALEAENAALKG

4H2604-AA = target: T5, 4H2604-AA; assay: two-hybrid library CCmax; details: mean of both orientations;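 note: natural log of median RNA to DNA barcode read ratio; higher means stronger binding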
T5 chain: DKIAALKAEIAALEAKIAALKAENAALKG

4H2621-AA = target: T6, 4H2621-AA; assay: two-hybrid library CCmax; details: mean of both orientations;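 note: natural log of median RNA to DNA barcode read ratio; higher means stronger binding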
T6 chain: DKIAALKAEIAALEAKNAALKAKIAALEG

4H2760-AA = target: T7, 4H2760-AA; assay: two-hybrid library CCmax; details: mean of both orientations
T7 chain: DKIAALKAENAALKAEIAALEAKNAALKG

4H2774-AA = target: T8, 4H2774-AA; assay: two-hybrid library CCmax; details: mean of both orientations
T8 chain: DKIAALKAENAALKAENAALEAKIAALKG

4H2903-AA = target: T9, 4H2903-AA; assay: two-hybrid library CCmax; details: mean of both orientations
T9 chain: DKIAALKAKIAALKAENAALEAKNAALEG

4H2947-AA = target: T10, 4H2947-AA; assay: two-hybrid library CCmax; details: mean of both orientations
T10 chain: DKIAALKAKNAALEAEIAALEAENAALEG

4H2961-AA = target: T11, 4H2961-AA; assay: two-hybrid library CCmax; details: mean of both orientations
T11 chain: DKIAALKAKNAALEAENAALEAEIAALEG

4H3049-AA = target: T12, 4H3049-AA; assay: two-hybrid library CCmax; details: mean of both orientations
T12 chain: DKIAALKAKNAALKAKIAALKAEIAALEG

4H3094-AA = target: T13, 4H3094-AA; assay: two-hybrid library CCmax; details: mean of both orientations
T13 chain: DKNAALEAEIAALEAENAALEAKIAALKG

4H324-AA = target: T14, 4H324-AA; assay: two-hybrid library CCmax; details: mean of both orientations
T14 chain: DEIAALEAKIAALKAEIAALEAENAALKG

4H341-AA = target: T15, 4H341-AA; assay: two-hybrid library CCmax; details: mean of both orientations
T15 chain: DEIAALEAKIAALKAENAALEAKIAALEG

4H3449-AA = target: T16, 4H3449-AA; assay: two-hybrid library CCmax; details: mean of both orientations
T16 chain: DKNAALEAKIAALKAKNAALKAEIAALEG

4H3619-AA = target: T17, 4H3619-AA; assay: two-hybrid library CCmax; details: mean of both orientations
T17 chain: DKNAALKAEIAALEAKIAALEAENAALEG

4H3629-AA = target: T18, 4H3629-AA; assay: two-hybrid library CCmax; details: mean of both orientations
T18 chain: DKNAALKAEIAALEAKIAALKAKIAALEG

4H3777-AA = target: T19, 4H3777-AA; assay: two-hybrid library CCmax; details: mean of both orientations
T19 chain: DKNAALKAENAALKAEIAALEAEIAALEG

4H380-AA = target: T20, 4H380-AA; assay: two-hybrid library CCmax; details: mean of both orientations
T20 chain: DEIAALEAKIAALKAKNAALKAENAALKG

4H3915-AA = target: T21, 4H3915-AA; assay: two-hybrid library CCmax; details: mean of both orientations
T21 chain: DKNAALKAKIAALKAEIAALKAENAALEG

4H3974-AA = target: T22, 4H3974-AA; assay: two-hybrid library CCmax; details: mean of both orientations
T22 chain: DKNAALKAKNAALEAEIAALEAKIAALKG

4H432-AA = target: T23, 4H432-AA; assay: two-hybrid library CCmax; details: mean of both orientations
T23 chain: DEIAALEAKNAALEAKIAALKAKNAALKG

4H446-AA = target: T24, 4H446-AA; assay: two-hybrid library CCmax; details: mean of both orientations
T24 chain: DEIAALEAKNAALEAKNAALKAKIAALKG

4H63-AA = target: T25, 4H63-AA; assay: two-hybrid library CCmax; details: mean of both orientations
T25 chain: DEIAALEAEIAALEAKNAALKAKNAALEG

4H4038-bN = target: T26, 4H4038-bN; assay: two-hybrid library CCNG1
T26 chain: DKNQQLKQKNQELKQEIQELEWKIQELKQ

4H3907-bN = target: T27, 4H3907-bN; assay: two-hybrid library CCNG1
T27 chain: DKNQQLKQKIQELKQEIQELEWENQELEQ

4H3961-bN = target: T28, 4H3961-bN; assay: two-hybrid library CCNG1
T28 chain: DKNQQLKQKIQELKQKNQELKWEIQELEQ

4H470-bN = target: T29, 4H470-bN; assay: two-hybrid library CCNG1
T29 chain: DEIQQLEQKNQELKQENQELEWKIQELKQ

4H491-bN = target: T30, 4H491-bN; assay: two-hybrid library CCNG1
T30 chain: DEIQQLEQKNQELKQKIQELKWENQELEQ

P4bH1 = target: T31, P4bH1; assay: two-hybrid library CCNG1
T31 chain: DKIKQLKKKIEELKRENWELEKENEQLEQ

interaction score (4H1878-AA): 0.691
interaction score (4H235-AA): 0.899
interaction score (4H249-AA): 1.34
interaction score (4H2580-AA): -0.744
interaction score (4H2604-AA): -0.964
interaction score (4H2621-AA): 2.05
interaction score (4H2760-AA): 1.48
interaction score (4H2774-AA): -1.27
interaction score (4H2903-AA): -0.956
interaction score (4H2947-AA): -0.843
interaction score (4H2961-AA): -1.54
interaction score (4H3049-AA): -0.448
interaction score (4H3094-AA): 1.41
interaction score (4H324-AA): 0.44
interaction score (4H341-AA): 0.00503
interaction score (4H3449-AA): 1.63
interaction score (4H3619-AA): -0.661
interaction score (4H3629-AA): 1.63
interaction score (4H3777-AA): -1.54
interaction score (4H380-AA): -0.854
interaction score (4H3915-AA): -1.7
interaction score (4H3974-AA): -1.23
interaction score (4H432-AA): -0.557
interaction score (4H446-AA): -1.08
interaction score (4H63-AA): 1.51
Binder: DENAALKAKIAALKAENAALEAKIAALKG [4H1878-AA]

interaction score (4H4038-bN): -0.153
Binder: DKNQQLKQKNQELKQEIQELEWKIQELKQ [4H4038-bN]

interaction score (4H3907-bN): -1.04
interaction score (4H3961-bN): -1.64
interaction score (4H4038-bN): -2.02
interaction score (4H470-bN): -1.7
Binder: DKNQQLKQKIQELKQEIQELEWENQELEQ [4H3907-bN]

interaction score (4H491-bN): -0.336
interaction score (P4bH1): -0.336
Binder: DEIQQLEQKNQELKQKIQELKWENQELEQ [4H491-bN]
